According to patent publication US20090136998A1 (Stanford University, published 2009):

Biological target: T1, human VEGFR-2 expressed on porcine aortic endothelial cells (PAE/VEGFR-2) (human, UniProt P35968 20-1356)
T1 construct: whole, on cells; also called KDR; PAE/KDR cells
Assay: competitive bioluminescence ELISA on PAE/VEGFR-2 cells; cold VEGF 121 varied against RL8-VEGF
Procedure: FIG. 10A illustrates coomassie Blue staining of purified fusion proteins and control proteins. […] FIG. 10B illustrates a Western Blot of purified proteins. […] FIG. 10C illustrates competitive bioluminescence ELISA on PAE/VEGFR-2 overexpressing cells.
Cells were washed and incubated with 0.5 μg of coelenterazine substrate and immediately imaged in the Xenogen IVIS 100 optical cooled charge-coupled device (CCD) (Xenogen, Alameda, Calif.). Regions of interest (ROIs) were drawn over the cell area and quantified in average photons/second/centimeter²/steradian (photons/s/cm²/sr) by using […] version 2.50 (Xenogen, Alameda, Calif.).

T1 sequence (P35968 20-1356): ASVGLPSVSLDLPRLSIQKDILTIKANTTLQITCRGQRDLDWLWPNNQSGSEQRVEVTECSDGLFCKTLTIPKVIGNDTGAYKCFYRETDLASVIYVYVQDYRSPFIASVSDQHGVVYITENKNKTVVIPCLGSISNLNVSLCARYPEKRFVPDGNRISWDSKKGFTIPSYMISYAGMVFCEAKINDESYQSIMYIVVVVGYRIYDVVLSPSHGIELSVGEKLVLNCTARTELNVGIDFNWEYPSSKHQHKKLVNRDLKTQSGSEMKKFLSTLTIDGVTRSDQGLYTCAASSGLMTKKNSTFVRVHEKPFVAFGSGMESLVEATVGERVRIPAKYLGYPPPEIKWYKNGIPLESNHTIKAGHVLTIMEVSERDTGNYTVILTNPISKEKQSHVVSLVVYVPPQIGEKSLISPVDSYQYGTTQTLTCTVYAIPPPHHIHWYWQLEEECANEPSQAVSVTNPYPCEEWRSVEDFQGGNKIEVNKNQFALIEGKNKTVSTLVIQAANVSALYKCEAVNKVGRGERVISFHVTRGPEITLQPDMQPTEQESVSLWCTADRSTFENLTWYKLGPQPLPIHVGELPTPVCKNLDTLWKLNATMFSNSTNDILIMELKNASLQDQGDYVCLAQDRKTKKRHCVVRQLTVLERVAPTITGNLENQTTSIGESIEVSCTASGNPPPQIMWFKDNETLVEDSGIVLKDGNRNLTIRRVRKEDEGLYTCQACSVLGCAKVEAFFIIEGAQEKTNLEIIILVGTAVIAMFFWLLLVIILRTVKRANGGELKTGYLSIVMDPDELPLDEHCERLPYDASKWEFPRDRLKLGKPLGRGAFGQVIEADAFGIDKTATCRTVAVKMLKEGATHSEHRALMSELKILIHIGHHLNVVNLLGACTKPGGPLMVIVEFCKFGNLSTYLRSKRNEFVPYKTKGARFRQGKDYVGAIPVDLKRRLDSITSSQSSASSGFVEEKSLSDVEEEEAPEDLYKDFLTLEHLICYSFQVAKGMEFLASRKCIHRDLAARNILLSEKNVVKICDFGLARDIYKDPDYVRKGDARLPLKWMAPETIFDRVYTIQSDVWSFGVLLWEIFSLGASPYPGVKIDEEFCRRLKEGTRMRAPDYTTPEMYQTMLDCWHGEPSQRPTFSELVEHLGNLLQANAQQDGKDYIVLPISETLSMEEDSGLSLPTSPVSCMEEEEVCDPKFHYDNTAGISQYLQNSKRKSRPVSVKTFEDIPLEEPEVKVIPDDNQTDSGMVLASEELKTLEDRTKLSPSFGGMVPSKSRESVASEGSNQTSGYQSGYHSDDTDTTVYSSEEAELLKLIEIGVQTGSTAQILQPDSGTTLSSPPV

B1: recombinant human VEGF 121 (PeproTech) (ligand, UniProt P15692-9 27-147, looked up)
chain: APMAEGGGQNHHEVVKFMDVYQRSYCHPIETLVDIFQEYPDEIEYIFKPSCVPLMRCGGCCNDEGLECVPTEESNITMQIMRIKPHQGQHIGEMSFLQHNKCECRPKKDRARQEKCDKPRR
**Q.** Which IC50 does the source give for B1 here?
**A.** The IC50 was 0.045 µg/mL.
